# Measurements as given in US20120141376A1, “PROSTATE SPECIFIC TRANSCRIPTS AND THE USE THEREOF FOR PROSTATE CANCER THERAPEUTICS AND DIAGNOSTICS” (priority 2006, published 2012).
# B1: No. 18: DATAS fragment; golgi SNAP receptor complex member 2; exon extension (nucleic acid, listed as Homo sapiens)
# DNA: GGCCTTAGGGGCACGAGGATGTGAATCGACCTACTACTTAATATAATGGCTGTGAGAAAAGGCCTCTTTCCTTTCCTTTCCACTTTTGCTCCACCCTATCAGGAGCCAGAAAGGCCTGATGGTGACAAGGTGTGAACCGTGTGGACAGTCCTGCACACAGGGCTCACTGTGGACACCTTCCCAGGGCACGCATCAGCTGTGTGAACAAAGCCACCAAAGCCATTCTTTCCCTCCCCCGC
# B2: No. 9: DATAS fragment; protein kinase C, zeta; novel exon (nucleic acid, listed as Homo sapiens)
# DNA: GGGCAAAGGATGTTGCCCCTGTCCTGAAGGCTGTCGCCCGATCGCTCTATCCAAGGCTGCCCTGGGGCAGCGTCACCTGGGGGTCCTGCGGGGGCTTCTCAGCACAGCATCCAGCACTGCCACCTAGTGTGTTCCCGTCACGTCTCCTCCCCCCG
# B3: No. 13: DATAS fragment; ATPase, Class V, type 10A; exon extension (nucleic acid, listed as Homo sapiens)
# DNA: GGAGGAGGTCGGCATCACCAGTAACAGGAATCCCTCTCCCTTTGAAGGCAGTGATGGCCAGCGACTTTGCAGTGCCGAAATTCCGATACCTGGAGAGGCTCTTGATTCTTCACGGGCATTGGTGCTACTCCCGACTTGCCAACATGGTGCTGTACTTCTTCTACAAAAACACAATGTTCGTGGGCCTCCTGTTTTGGTTCCAGTTTTTCTGTGGCTTCTCTGCATCTACCATGATTGACCAGTGGTATCTAATCTTCTTTAATCTGCTCTTCTCGTCACCTCCAACGA
# B4: No. 10: DATAS fragment; transferrin receptor (p90, CD71); novel exon (nucleic acid, listed as Homo sapiens)
# DNA: GTGGCGAGGCGGTTCGGGACGGAGGACGCGCTAGTGTTCTTCTGTGTGGCAGTTCAGAATGATGGATCAAGCTAGATCAGCATTCTCTAACTTGTTTGGTGGAGAACCATTGTCATATACCCGGTTCAGCCTGCTCTCC
# B5: No. 14: DATAS fragment; zinc finger protein 142 (clone pHZ-49); exon extension (nucleic acid, listed as Homo sapiens)
# DNA: CGGACCAGGACAAAATCATGACGATGCTCCATCCCAAGCCTTCCAGGTTACAAACCGCCTTTCCAGTTCGCTGGCTCTTATGATCCAGCTCCTGCCCGACGATGTGGACACTGTCATCACCTCCATTTTACAGATAGGAAAGCTGAGGCCCAGAGAAGCGAAGCGACTGTGTCTGTCCAAGACCACGCGCCCTCCTCCCTGTC
# B6: No. 6: DATAS fragment; transmembrane protease, serine 2; exon extension (nucleic acid, listed as Homo sapiens)
# DNA: GCCGAGGTCTTCCCTAAGGACAGGGAGACTTGTTGAGCTCCCAGTGTTGCCTGCAGCTCTCGCAGGGAGAGCACACTTCCCTCCCTGAGACCTCCACACGCACTACACAGATGGTCACAGCCCTATTCTCCAGCCCTGCCCCCGTCAGCTCATCCCAGCACCAACCCCTCTCCTGGGAAACCTGGATTCTCCTTACAACTGGCGGTGCCTGTGCTGAATGCAGCTCTGGAGTTCAGCTTCAGGGAAAGAAATTCCCAGCTCTGAAACTATAGGGCTCTATCAGTGCCATGGAATCCCCCTCTTATTCACCCAACGGCTTGGTTCTGCTGAACCAATTTCCCACTCCTCACTGAACCCCACCCAGGACACACAGGCGCCTGTTTCCCCTCTGGCATGCACACACTCTTCTGGAGCACACGCGACCCTCCCTAGGCCGCCTGCTTCTCGGCTCCCCTGCACA
# B7: No. 11: DATAS fragment; cadherin-like 23; novel exon (nucleic acid, listed as Homo sapiens)
# DNA: GACACCCTAGCTGCAAGGGAGGTTAGAAAAAATGAGGGACAGGATTATCATGGTCAGCATATTACTTGGGGGCCAGATATATCACTTCCCACACAAAAGCAGGCCTCTGTCAGTGAGGAAGAAGTGGAGAATGGATTTGGGGTGGGCATCTGACAGCATTTGCCACACTGCCCTCCCCAATCCTAATGCAGGCCAGTCAACGCACCACCCCCACTCCCCACCCACACTCCAACCCCCACAGTCCTAGGGTCTCTCAGGGAGACCATCGGTGGAATCCATAACATTCTAAGACCCTGCAGTTTGTAGGCAAAATCAGGCTTCCTTTGGGTGCCCCCG
# B8: No. 19: DATAS fragment; GenBank human mRNA AK054845; novel exon (nucleic acid, listed as Homo sapiens)
# DNA: GGGGACAGGCAGAGGTTGCACTGCACTCCAGCCTGGGTGACAGATCAAGATTCTGTCTCAAGTAATAATAATGATGATGATGATGATGATGATGATGATGATAATAACACACCTTGTTAATGTTAATTCACTGTGTTAAATCAATTAACTCATTTTCTCATAATTACCCTTGAACGAGTAAGTTATTGACATTCTCTCCATGGGAAAAAAAACCCTTGGAGAAAGGTAACTTGAATATGGCCAAATGGGCAATTTGGATAGAACTGGGATTTGAACCTAGGACATCTGATTCCACATCCTTTTCATGAGCCACAATGCTCTACATGTGGTTTTATTTCTTGGATCACATGTAACACATCCATAAAAGTGCCTCCCCCCG
# B9: No. 8: DATAS fragment; ataxin 2-like; exon extension (nucleic acid, listed as Homo sapiens)
# DNA: GTAGCAGGGCAGCAGACTTGGGAGAACGCGGGGGATACATCCGGCCCACTGGAAGAAAAGGGGGAGCTGTAGGATGGTTACTGCTGGTCAACAGCAGTGAGTACAAGGGCCTTACTCAAAACAGCAAGAAAGTTTACACACTATACAACCAGAGTCACCAACTTAAATGTCTAGAAGCTCAAGGCAGGTAACACAAGCAGGTAAATGGCCTCATGGGCATCATCGACAACTGGAATGCTTAAAGGAGTGGCAGGGATTCTGTTCCAGTCAACTCAAGCTACGCAGCAAGGCAAGCTCAGTTGACAGAATTTCCTGTAATTCAAAAGAAACTAAAAATTTTCTATGGCTTCTATTGATTTATTTATTTAGAGACAGGGTATCGCTCTGTTCCCC
# B10: No. 5: DATAS fragment; N-acetyltransferase 6; exon extension (nucleic acid, listed as Homo sapiens)
# DNA: GTAAAGGCATGTGGAATCCAGGGGCAGCTTTGGCTGGCACGCAGGATCCAGAGTCAGCTCAGCTGGGCTGGTACTCAGGATCAGCTCCATCCGGTGTGTAGGGTCTAGTGTAGGGGTCAGCTTGGCTGGGCCAGGGCTCAGAGTCAGCTCTTGCCTATGCACAGGATCCAGGTTCAGCTGAGTCAGGCTGGGAGCCAAGGTCACCTGCTGCTAGGTTGCAGGTGGCTCAGTGCCAGGCTGGAGGTTAAGACCCCAGTCTCCAGGCAGTAGCATCTCTTCAGACCACAGTGGCTCTCCTCATGTTGATGCTGGCCTCTGGGATGTTCCGCGTCCTAGCTCCGCACAGCTGGGTATCTCACTCAGTCGCCACCTCGGCCTCCCAACA
# B11: No. 15: DATAS fragment; GenBank Human mRNA AF116698 (intronic hit); genomic hit (nucleic acid, listed as Homo sapiens)
# DNA: CGGCGCACCTGGTACGTGGTGTATGTTCCATTTGTGCTGGCCACGGTGATGATGATGATGATGCCATCTCTCCGGCTACACTGCGAGCACAGATCACAGCTCTCTGTAGCTGATGCTGGCTCTACCCACTGTATTCGGG
# Test system: HLA class I (e.g. HLA-A2) expressing adherent 293T cells
# Test: CTL assay on reverse transfected microarray (caspase activation, fluorescent Z-VAD)
# Assay type: cell-based, human
# Settings: HLA-matched CD8+ T cells from prostate cancer patients incubated 4 hours on array; red fluorescent signal = positive response
# Description: Additional patient samples were procured for the cytotoxic T Lymphocyte (CTL) assay. […] (PBMC) were isolated from blood drawn from patients with relevant clinical parameters, and with patient consent. Clinical data generally included patent history, physiopathology, and parameters relating to prostate cancer physiology. PBMCs were collected from 6 prostate cancer patients that met the study requirements. Duplicate samples were obtained from a single patient.
# The 192 selected DATAS fragments were PCR amplified out of the library vector and directionally cloned into a eukaryotic expression vector down stream from staggered start site initiation codons. This configuration allows the DATAS fragment to be expressed in all the open reading frames, which is required because the correct reading frame is not always readily apparent.
# Plasmid preparations were performed and the expression vectors containing the selcted DATAS fragment clones were re-arrayed into 96 well plates, which were subsequently used to spot glass slides for use in the CTL assay previously disclosed in International Patent Application No. PTC/US2005/032392, the disclosure of which is incorporated by reference in its entirety.
# A design file containing the desired microarray positions of the DATAS expression vectors was uploaded into a high resolution scanner. The expression vectors containing the DATAS fragments were mixed with gelatin and lipofectamine and then spotted in duplicate in a pattern that matched the design file uploaded into the high resolution microarray scanner. The following positive controls, negative controls and experimental samples were spotted on the array.
# The spotted arrays were then overlaid with HLA class I (e.g. HLA-A2) expressing adherent 293T cells and cultured for 48-72 hours to allow cells time to express vector-encoded transcripts.
# The assay for CTL reactivity was then performed by incubating HLA-matched CD8^+ T cells from normal and prostate cancer patients on cultured reverse transfected microarray slides for 4 hours. Prior to incubation with the array, T cells from normals or patients may need to be expanded in vitro, to a small or large extent, to enhance the frequency of responding T cells. An inhibitor of activated caspase, fluorescence-tagged (sulfo-Rhodamine)-Z-VAD, is present throughout the cell incubation to bind caspases that become activated when antigen expressing adherent cells on certain spots are induced to die by the CTL. The slides are then washed to remove unbound fluorescent Z-VAD and 2-color (Green and Red) fluorescence images of the microarray slides are obtained with the microarray scanner.
# Analysis and confirmation of data is then determined by visual inspection of the scanned image. The success of the reverse transfection is evaluated by observing green fluorescence at EGFP vector control spots. Then the fluorescence threshold(s) are adjusted on microarray scanner as necessary to establish relevant background and positive control signal intensities. […] Using the coordinate locations for the spots, the cDNAs yielding positive responses are identified.
row,Molecule,Patient ID with positive hit
1,B1,FRJY5
2,B2,EYGRT
3,B3,MSMPB
4,B4,MSMPB
5,B5,MSMPB
6,B6,EYGRT
7,B7,MSMPB; P72
8,B8,EYGRT
9,B9,MSMPB
10,B10,EYGRT
11,B11,MSMPB
